Data as given in the nanobody polyreactivity screen of Harvey et al. (2022).

Test: yeast display, Sf9 membrane polyspecificity reagent, FACS + sequencing; frameworks hold sequencing errors
How it was run: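 Nanobodies came from a synthetic yeast display library in Saccharomyces cerevisiae BJ5465, induced with galactose for 36–48 hours and stained for 1 hour at 4 °C with 10% biotinylated, detergent-solubilized Sf9 membrane reagent. Cells were enriched on streptavidin microbeads and then FACS-sorted, with low and high (top ~1%) gates set on anti-HA fluorescence for expression and streptavidin fluorescence for reagent binding. Each polyreactivity label reflects the gate a clone came from. Genes were amplified by colony PCR, sequenced by MiSeq 2 × 250 and filtered by CDR length.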
For “QVQLVESGGRLVQAGGSLRLRCAASGFIFLVNAMGWYRQARGKESELVAAITTSGASTYYADSVKGRFTISRDNAKNTVYLQMNSLKPEDTAVYYCAAGSYARPEYGYWGQGTQVTVSS”, the “polyreactivity (PSR sort gate)” value was “low polyreactivity”.
With “QVQLVESGGRLVQAGGSLRLSCAASGFIYTPNTMGWYRQAHRKERELVAAITTNGGRTYYADSVKGRFTISRDNAKNTVYFQMNSVKPEDTAVYYCAARYVSSFGLHAQVWSYYYWGLGTQVTVSS” the “polyreactivity (PSR sort gate)” value was “high polyreactivity”.
In the case of “QVQLVESGGRLVQAGGSLRLSCAASGFTFARYAMGWYRQAPGKERELVARISSDGGGTDYADSVKGRFTISRDNAKNTVYLQMNSLKPEDTAVYYCYADPYSRFWGPDYGYWGQGTQVTVSS”, the “polyreactivity (PSR sort gate)” value is reported as “low polyreactivity”.
With “QVQLVESGGRLVQAGGSLRLSCAASGFTFPVYAMGWYRQAPGKERELVAVIRLTGGRTYYADSVKGRFTISRDNAKNTVYLQMNSLKPVDTAVYYCAAGSRSGYGYWGQGTQVTVSS” the “polyreactivity (PSR sort gate)” value was “high polyreactivity”.
In the case of “QVQLVESGGRLVQAGGSLRLSCAASGFTFRYYAMGWYRQAPGKERELVAAITWSGGRTYYADSVKGRFTISRDNAKNTVFLQMNSLKPEDTAVYSSNTPSLWYGEDYWGHGTQVTVSS”, the “polyreactivity (PSR sort gate)” value is reported as “high polyreactivity”.
For “QVQLVESGGRLVQAGGSLRLSCAASGGIFTAYTMGWYRQAPGKESELVAVISSGGGRTYYADSVKGRFTISRDNAKNTVYLQMNSLKPEDTAVYYCNARVYVSANKYDYWGQGTQVTVSS”, the “polyreactivity (PSR sort gate)” value was “high polyreactivity”.
With “QVQLVESGGRLVQAGGSLRLSCAASGHIFFYYTMGRYRPGPGKERELVAGITIGGSTNYADSVKGRFTISRDNAKNTVYLLMNSLKPADTAVYYCNVVKYVYISSYWEYYYWGQGAQVTVSS” the “polyreactivity (PSR sort gate)” value was “low polyreactivity”.
For “QVQLVESGGRLVQAGGSLRLSCAASGITQGYYAMGWYRQAPGKERELVAAISYRGGNTYYADSVKGRFTISRDNAKNTVYLQMNSLKPEDTAVYYCNADLGYESGWWSKYDYWGQGTQVTVSS”, the “polyreactivity (PSR sort gate)” value was “low polyreactivity”.
With “QVQLVESGGRLVQAGGSLRLSCAASGLIFNDNAMGWYRQAPGKERELVAAISWGGGTTYYADSVKGRFSNSRDNAKYTVFLQMNSLKPEDTAVYYCAAEEAMFYDFYYVLLDYWGQGTQVTVSS” the “polyreactivity (PSR sort gate)” value was “high polyreactivity”.
In the case of “QVQLVESGGRLVQAGGSLRLSCAASGLIFRRNAMGWYRQAPGKERELVSAISRSSGSTYYADSVKGRFTISRDYAKNSVYFHMNSLKPDDTAVYYCDAGYRAGPGYGMYSWGQGTQVTVSS”, the “polyreactivity (PSR sort gate)” value is reported as “high polyreactivity”.
With “QVQLVESGGRLVQAGGSLRLSCAASGLIFYTYAMGWYRKAPGKERELVADINRSDGSTYYADSVKGRFTISRDNAKNTVYLQMNSLKPEDTAVYYCAVVGPYYSRFGGRYYYWGQGTQVTVSS” the “polyreactivity (PSR sort gate)” value was “low polyreactivity”.
In the case of “QVQLVESGGRLVQAGGSLRLSCAASGLIIDVNTMGWYRQAPGKDRELVAAITGSGGRTYYADSVKGRFTISRDNAKNTVYLQMNSLKPEDSAVYYCNADTSYVGFDFWGQGTQVTVSS”, the “polyreactivity (PSR sort gate)” value is reported as “low polyreactivity”.
With “QVQLVESGGRLVQAGGSLRLSCAASGLILLPNTMGWYRQAPGKESEMVAAISYSGGGTYYADSVKARFTISRDNAKNSVYLQMNSLKPEDTAVYYCAAYVKRESAPYGYWGQGTQVTVSS” the “polyreactivity (PSR sort gate)” value was “low polyreactivity”.
In the case of “QVQLVESGGRLVQAGGSLRLSCAASGRIFAFYAMGWYRQAPGKERELVAAITSGGSTKYADSVKGRFTISRDNAKNTVYLQMNSLKPEDTAVYYCAAVESGYGSKRFYYWGQGTQVTVSS”, the “polyreactivity (PSR sort gate)” value is reported as “high polyreactivity”.
For “QVQLVESGGRLVQAGGSLRLSCAASGRIFGDYAMGRYRQAPGKERDLVAAISWSDGSTYYADSVKGRFTISRDNAKNTVYLQMNSLTPEDTAVYYCPAYGWGYRYVDVVVSDFYYWGQGTQVTVSS”, the “polyreactivity (PSR sort gate)” value was “low polyreactivity”.
With “QVQLVESGGRLVQAGGSLRLSCAASGRIFTQYAMGWYRQSPGKERELVAAINASDGSTYADSVKGRFTSSRDNAQNTVYLQMKRLKPADTAVYYCNVTGGTYDFTRWSEFDHWGQGTQVTVSS” the “polyreactivity (PSR sort gate)” value was “low polyreactivity”.
In the case of “QVQLVESGGRLVQAGGSLRLSCAASGRIIGVNAMGWYRQAPGKERELVATITSGGSTYADSVKGRFTISRDNAKNTVYLQMNSLKPEDTAVYFCNALIYKRVTRYPYVRLMDYWGQGTQVTVSS”, the “polyreactivity (PSR sort gate)” value is reported as “high polyreactivity”.
For “QVQLVESGGRLVQAGGSLRLSCAASGRILYVNNMGWYRQAPGKERELVAGITSRVGSTYYADSVKGRFTISRDNAKNTVYLQMNSLKPEDSAVYYCNARSTWRHRRDQVDFDYWGQGTQVSVSS”, the “polyreactivity (PSR sort gate)” value was “low polyreactivity”.
In the case of “QVQLVESGGRLVQAGGSLRLSCAASGRTFGYYAKGLSRQAQGKEREFVAAISFRTTSTYYADSVKGRFTISRDNAKNTVYLQMISLKPEDTAVYYCNVVVKGAWDYYPYDYWGQGPQVTVSS”, the “polyreactivity (PSR sort gate)” value is reported as “high polyreactivity”.
In the case of “QVQLVESGGRLVQAGGSLRLSCAASGRTFIGYARGWYRQAPGKERELVAGISWSGGSTYYADSVKGRFTISRDNAKNTVYLQMNSLKPEDTAVYYCAARGRWSTEYGYWGQGTQVTVSS”, the “polyreactivity (PSR sort gate)” value is reported as “low polyreactivity”.
With “QVQLVESGGRLVQAGGSLRLSCAASGRTFWFNDMGWYRQAPGKVRQLVAAISDTDGSTYYADSVKGRFTISRDNAKNSVYLQMNSLKPVDTAVYYCAPEAYYGYLYAYDYWGQGTQVTVSS” the “polyreactivity (PSR sort gate)” value was “low polyreactivity”.
For “QVQLVESGGRLVQAGGSLRLSCAASGRTFYIYAMGWYRQAPGKERELVADISWSGGSTYYADSVKGRFTISRDNAKNTVYLQMNSLKPEDTAVYYCAADLYVYPNWYLYYYWGQGTQVTVSS”, the “polyreactivity (PSR sort gate)” value was “high polyreactivity”.
In the case of “QVQLVESGGRLVQAGGSLRLSCAASGSIFAVNAMGWYRQAPGKERELVAAIDWSDGITYYADSVKGRFTISRDNAKNTVYLKMNSLKPEDTALNYCAADATAYGWYVEQFSFYDNDYWGQGTQVTVSS”, the “polyreactivity (PSR sort gate)” value is reported as “high polyreactivity”.
With “QVQLVESGGRLVQAGGSLRLSCAASGSIFDNYVMGWYRQAPGKERELVAAINSSGGSTYYADSVKGRFTISRDNAKNTVYLQMNSLKPEDTAVYYCIATDGITPYDLTDIEFDYWGQGTQVTVSS” the “polyreactivity (PSR sort gate)” value was “low polyreactivity”.
In the case of “QVQLVESGGRLVQAGGSLRLSCAASGSIFLAYDMGWYRQAPGKERELVAGITSVGTTYYADSVKGRFTISRDNAKNTVYFQMNSLKPEDTAVYYCAAQLYIRNHFRYASTAAYDMGYWGQGTQVTVSS”, the “polyreactivity (PSR sort gate)” value is reported as “low polyreactivity”.
In the case of “QVQLVESGGRLVQAGGSLRLSCAASGSIFYYYAKGLYRKAPVTARELVAAISTRGGRTYYADSVKGRFTISRDNAKTTVYLQMNSLKPEDTAVYYCNVPYYLPSYLSGYDYWGQGTQVTVSS”, the “polyreactivity (PSR sort gate)” value is reported as “low polyreactivity”.
For “QVQLVESGGRLVQAGGSLRLSCAASGSIINVNTMGWYRQAPGKERELVAAISSGGRTYYADSVKGRFTISRDNAKNTVYLQMNSLKPEDTAVYYCNTVLGVYDYDYWGQGTQVTVSS”, the “polyreactivity (PSR sort gate)” value was “low polyreactivity”.
In the case of “QVQLVESGGRLVQAGGSLRLSCAASGSTFAVYAMGWYRQAPGKERELVAAINRSGDSTYYADSVKGRFTISRDNAKNTVYLQMNSLKPEDTAVYYCAVSAWTRSHALYYWGQGTQVTVSS”, the “polyreactivity (PSR sort gate)” value is reported as “high polyreactivity”.
With “QVQLVESGGRLVQAGGSLRLSCAASGSTFGSYTMGWYRQAPGKERELVAAINWSGGNTYYADSVKGRFTISRDYAKNTVYLQMNSLKPEDTAVYFCAAAYYIYGFEGDYWGHGTQVTVSS” the “polyreactivity (PSR sort gate)” value was “low polyreactivity”.
For “QVQLVESGGRLVQAGGSLRLSCAASGSTFSYYDMGGYRQAPGKEMELVADISWSGGSTYYADSVKGRFTISRDNAKNTVYLQMNSLKPEDTAVYYCAARGYVRWYNRYDYWGQGTQVTVSS”, the “polyreactivity (PSR sort gate)” value was “low polyreactivity”.
With “QVQLVESGGRLVQAGGSLRLSCAASGSTINKYAMGWYRQAPGKERELVAAISRSGGSTNYADSVKGRFTISRDNAKNTVYLQMNSLKPEDNAVYYCNRTRYRSFHYDYWGQGTQVTVSS” the “polyreactivity (PSR sort gate)” value was “high polyreactivity”.
In the case of “QVQLVESGGRLVQAGGSLRLSCAASGYIFERNAMGWYRPAPGKERELVAAITDDGDDTYYADSVKGRFTISRDNEKNTVYLQLYSLKPEDTAVYYCAKDLYYGDYYYWGQGTQVTVSS”, the “polyreactivity (PSR sort gate)” value is reported as “low polyreactivity”.
With “QVQLVESGGRLVQAGGSLRLSCAPSGRTFRWYAMGWYRQSPGKERELVAAISRSGGSTYYADSVKGRFTISRDNAKYTVFLQMNILKPEDTAVYYCANVRYDFKLDYWGQGTQVTVSS” the “polyreactivity (PSR sort gate)” value was “high polyreactivity”.
For “QVQLVESGGRLVQAGGSLRLSCDASGRTFGKYALGWYRQAPGKEREFVATITRSGDSTYYADSVKGRFTISRDNAKNTVYLQMNSLKPEDTAVYNCAKDTYGVLSYFQVSREYWGQGTQVTVSS”, the “polyreactivity (PSR sort gate)” value was “low polyreactivity”.
For “QVQLVESGGRLVQAGGSLRLSGAASGRTFAKYAMGWYRQAPGKERELVAAINSSGDSTYYADSVKGRFTISRDNAKNTVYLQMNSLKPEDTAVYYCATRYRSSQWYSPYKYDYWGQGTQVTVSS”, the “polyreactivity (PSR sort gate)” value was “low polyreactivity”.
With “QVQLVESGGRLVQAGGSLRLSSAASGRIFASNAMGWYRQAPGKERELVAAIDQGGGSTYYADSVKGRFTISRDNAKNTVYLQMNSLKPEDTAVYYCAADYITAYPRLYNYWGQGTQVTVSS” the “polyreactivity (PSR sort gate)” value was “low polyreactivity”.
For “QVQLVESGGRLVQAGRSLRLSCAASGSIFHDYAMGWYRQAPGKERELVAVISTSGGSTYYADSVKGRFTISRDNAKNTVYCQMNRLKPEDTAFYYCNARTVGPYPSHAALEYDSWGQGTQVTVSS”, the “polyreactivity (PSR sort gate)” value was “low polyreactivity”.
With “QVQLVESGGRLVQAVASHRLSCAASGSIFRKYALGCYRQAPGKERELVAAIRSSGGSTYYADSVKGRFTISRDNAKNTVYLQMISLIPEDTAVYYCAARYYRPSRYDYWGQGTQVTVSS” the “polyreactivity (PSR sort gate)” value was “high polyreactivity”.
For “QVQLVESGGRLVQSGGSLRLSCAASGFIFSYNAMGLYRQAPGKERELVASIRTRGGSTYYADSVKGRFTISRDNAKNSVYLQMNSLKPEDTAVYYCAARPFQRRYDYWGQGTQVTVST”, the “polyreactivity (PSR sort gate)” value was “low polyreactivity”.
In the case of “QVQLVESGGRLVQSGGSLRLSCAASGNTFIPNAMGWYRQAPGKERELVAAIRASGGSTYYADSVKGRFTISRDNAKNTVYLQMNSLKPEDTAVYYCNADIWYKTYDYWGQGTQVTVSS”, the “polyreactivity (PSR sort gate)” value is reported as “low polyreactivity”.
With “QVQLVESGGRLVQSGGSLRLSCAPSGSIFLRNAMGWYRQAPGKEREFVASITWNGASTSYADSVKGRFTISRDYAMNTVYLQMNSLKPEDTAVYFCAAVTVQDSNLKYGYWGQGTQVTVSS” the “polyreactivity (PSR sort gate)” value was “low polyreactivity”.
With “QVQLVESGGRVVQAGGILRLRCAGSGSILVHYAMGWYRQAPGKDRELVAAISRGGSTNYADSVKGRFTISRDNAKNTVYLQMNSLKPEDTAVYYCDARRPWGEYYWGQGTQVTVSS” the “polyreactivity (PSR sort gate)” value was “low polyreactivity”.
For “QVQLVESGGVLDQAGGSLRLRCAASGSTYYRNAMGWYRQAPGKERELVATINRGGSTYYADSVKWRFTISRDNAKNTVYLQMNSLKPEDPAVYYWAKDPYYAGRYRGDYWGQGTQVTVSS”, the “polyreactivity (PSR sort gate)” value was “high polyreactivity”.
